Measurements from US20240226163A1.

How the values were obtained:
Test in all cases: flow cytometry, peptide-pulsed T2 cells, 100 nM antibody
[1] = target: HLA-A*02:01 presenting CCDC36 417-426 peptide (…) (human)
[2] = target: HLA-A*02:01 presenting CELSR3 1594-1603 peptide (…) (human)
[3] = target: HLA-A*02:01 presenting FAT4 4053-4062 peptide (…) (human)
[4] = target: HLA-A*02:01 presenting LPIN2 823-832 peptide (…) (human)
[5] = target: HLA-A*02:01 presenting MAGE-A10 254-263 peptide (…) (human)
[6] = target: HLA-A*02:01 presenting MAGE-A4 230-239 peptide (…) (human)
[7] = target: HLA-A*02:01 presenting MAGE-A8 232-241 peptide (…) (human)
[8] = target: HLA-A*02:01 presenting PAPPA2 307-316 peptide (…) (human)
[9] = target: HLA-A*02:01 presenting SCL25A19 111-120 peptide (…) (human)
[10] = target: HLA-A*02:01 presenting THBS3 116-125 peptide (…) (human)

With “mAb1097 (mIgG2a Isotype Control) (antibody)” the Antibody Binding Ratio (pulsed cell MFI/Unpulsed cell MFI) [1] was 1.1, the Antibody Binding Ratio (pulsed cell MFI/Unpulsed cell MFI) [2] was 0.9 and the Antibody Binding Ratio (pulsed cell MFI/Unpulsed cell MFI) [3] was 1.1. The Antibody Binding Ratio (pulsed cell MFI/Unpulsed cell MFI) [4] was 0.9, the Antibody Binding Ratio (pulsed cell MFI/Unpulsed cell MFI) [5] was 1.3 and the Antibody Binding Ratio (pulsed cell MFI/Unpulsed cell MFI) [6] was 4.3. The Antibody Binding Ratio (pulsed cell MFI/Unpulsed cell MFI) [7] was 3.3, the Antibody Binding Ratio (pulsed cell MFI/Unpulsed cell MFI) [8] was 0.9 and the Antibody Binding Ratio (pulsed cell MFI/Unpulsed cell MFI) [9] was 0.9. The Antibody Binding Ratio (pulsed cell MFI/Unpulsed cell MFI) [10] was 1.
